Here are results for three variants from publication PMC11128890 (Frontiers in Cell and Developmental Biology, 2024).

First the molecules themselves.
B1: recombinant soluble integrin αvβ3 [not stated] / VEGF165 heparin-binding domain (HBD), wild type [human] (parent complex)
chain 1: FNLDVDSPAEYSGPEGSYFGFAVDFFVPSASSRMFLLVGAPKANTTQPGIVEGGQVLKCDWSSTRRCQPIEFDATGNRDYAKDDPLEFKSHQWFGASVRSKQDKILACAPLYHWRTEMKQEREPVGTCFLQDGTKTVEYAPCRSQDIDADGQGFCQGGFSIDFTKADRVLLGGPGSFYWQGQLISDQVAEIVSKYDPNVYSIKYNNQLATRTAQAIFDDSYLGYSVAVGDFNGDGIDDFVSGVPRAARTLGMVYIYDGKNMSSLYNFTGEQMAAYFGFSVAATDINGDDYADVFIGAPLFMDRGSDGKLQEVGQVSVSLQRASGDFQTTKLNGFEVFARFGSAIAPLGDLDQDGFNDIAIAAPYGGEDKKGIVYIFNGRSTGLNAVPSQILEGQWAARSMPPSFGYSMKGATDIDKNGYPDLIVGAFGVDRAILYRARPVITVNAGLEVYPSILNQDNKTCSLPGTALKVSCFNVRFCLKADGKGVLPRKLNFQVELLLDKLKQKGAIRRALFLYSRSPSHSKNMTISRGGLMQCEELIAYLRDESEFRDKLTPITIFMEYRLDYRTAADTTGLQPILNQFTPANISRQAHILLDCGEDNVCKPKLEVSVDSDQKKIYIGDDNPLTLIVKAQNQGEGAYEAELIVSIPLQADFIGVVRNNEALARLSCAFKTENQTRQVVCDLGNPMKAGTQLLAGLRFSVHQQSEMDTSVKFDLQIQSSNLFDKVSPVVSHKVDLAVLAAVEIRGVSSPDHVFLPIPNWEHKENPETEEDVGPVVQHIYELRNNGPSSFSKAMLHLQWPYKYNNNTLLYILHYDIDGPMNCTSDMEINPLRIKISSLQTTEKNDTVAGQGERDHLITKRDLALSEGDIHTLGCGVAQCLKIVCQVGRLDRGKSAILYVKSLLWTETFMNKENQNHSYSLKSSASFNVIEFPYKNLPIEDITNSTLVTTNVTWGIQP
chain 2: GPNICTTRGVSSCQQCLAVSPMCAWCSDEALPLGSPRCDLKENLLKDNCAPESIEFPVSEARVLEDRPLSDKGSGDSSQVTQVSPQRIALRLRPDDSKNFSIQVRQVEDYPVDIYYLMDLSYSMKDDLWSIQNLGTKLATQMRKLTSNLRIGFGAFVDKPVSPYMYISPPEALENPCYDMKTTCLPMFGYKHVLTLTDQVTRFNEEVKKQSVSRNRDAPEGGFDAIMQATVCDEKIGWRNDASHLLVFTTDAKTHIALDGRLAGIVQPNDGQCHVGSDNHYSASTTMDYPSLGLMTEKLSQKNINLIFAVTENVVNLYQNYSELIPGTTVGVLSMDSSNVLQLIVDAYGKIRSKVELEVRDLPEELSLSFNATCLNNEVIPGLKSCMGLKIGDTVSFSIEAKVRGCPQEKEKSFTIKPVGFKDSLIVQVTFDCDCACQAQAEPNSHRCNNGNGTFECGVCRCGPGWLGSQCECSEEDYRPSQQDECSPREGQPVCSQRGECLCGQCVCHSSDFGKITGKYCECDDFSCVRYKGEMCSGHGQCSCGDCLCDSDWTGYYCNCTTRTDTCMSSNGLLCSGRGKCECGSCVCIQPGSYGDTCEKCPTCPDACTFKKECVECKKFDRGALHDENTCNRYCRDEIESVKELKDTGKDAVNCTYKNEDDCVVRFQYYEDSSGKSILYVVEEPECPKGPD
chain 3: PCGPCSERRKHLFVQDPQTCKCSCKNTDSRCKARQLELNERTCRCDKPRR

Variants of B1 are the subject of the first assay. In words: ELISA-type binding assay; HBD coated at 2.5 µg/ml; n=3; read off a plot.
As to chain 3 R8A, chain 3 R9A, chain 3 K10A, chain 3 K25A, chain 3 R30A, chain 3 R34A, the response was around 0.02 OD450.
Regarding chain 3 K25A, chain 3 R30A, chain 3 R34A, the response was around 0.3 OD450.
Turning to chain 3 R8A, chain 3 R9A, chain 3 K10A, the response is around 0.25 OD450.

Variants of B1 are the subject of a further assay. As to the kind of experiment: ELISA-type binding assay; HBD coated at 5 µg/ml (highest point of the curve); read off a plot. A general note: In an ELISA, binding on a coated surface is turned into a signal by an enzyme label.
As for chain 3 R8A, chain 3 R9A, chain 3 K10A, chain 3 K25A, chain 3 R30A, chain 3 R34A, the response is around 0.11 OD450.
With chain 3 K25A, chain 3 R30A, chain 3 R34A, the response is around 1.1 OD450.
Regarding chain 3 R8A, chain 3 R9A, chain 3 K10A, the response is around 0.78 OD450.
